# Assay results published in the nanobody polyreactivity screen of Harvey et al. (2022).
# Experiment: yeast display, Sf9 membrane polyspecificity reagent, FACS + sequencing; frameworks hold sequencing errors
# Method in brief: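 Using colony PCR, genes from sorted yeast display clones were amplified, then sequenced on MiSeq at 2 × 250 and filtered by CDR length. The clones had been stained with 10% biotinylated, detergent-solubilized Sf9 membrane reagent for 1 hour at 4 °C and sorted by FACS into low and high (top ~1%) gates on anti-HA and streptavidin fluorescence. Polyreactivity labels come from the gate of origin.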
row,Sequence,polyreactivity (PSR sort gate)
1,EVQLVESGGGLVHAGGSLRLICAASGFTFTGYTMGWYRQAPGKERELVATISGSGGNTYYADSVKGRFTISRDNAKNTVYLQINSVKPEDTAVYYCARLRSGPRVLYYYWGQGTQVTVSS,low polyreactivity
2,QVQLVESGGGLVQAGRSLRLICAASGRISVFYTMGWYRQAPGKERELVAVIRTSGGRTNYADSVKGRFTISRDNAKNTVYLQMNSLKPEDTAVYYCAARVVRYGFKYYYWGQGTQVTVSS,low polyreactivity
3,QVQLVESGGGLVQAGGSLRLSCAASGSIFVRNAMGWYRQAPGKERELVAAISRSGSSTYYADSVKGRFTISRDIAKNTVYLQMNSLKPEDTAVYYCAARRRYKMDYWGQGTQVTVSS,high polyreactivity
4,QVQLVESGGGLVQAGGSLRLSCAASGIIFARNAMGWYRQAPGKERELVATISRNGGRTYYADSVKGRFTISRDNAKNTVYLQMNSLKPEDTAVYYCAAGFYLRAVWMDYWGQGTQVTVSS,high polyreactivity
5,QVQLVESGGGLVQAGGSLRLSCAASGSIFYAYAMGWYRQAPGKERELVATITSGGSTNYADSVKGRFTISRDNAKNTVYLQMNSLKPEDTAVYYCAVDISYSLGGGFGYDYWGQGTQVTVSS,low polyreactivity
6,QVQLVESGGGLVQARGSLRLSCAASGSTFDLYAMGWYRQAPGKEREFVAAISSSGGTTYNADSVKGRFTSSRDNAKKTVYLQRKSLKPEDTAVYYCAAVRYYESRGGYDYWGQGTQVTVSS,low polyreactivity
7,QVQLVESAGGLVQAGGSLSLSCAASGFTFYRNAMGWYRQAPGQERELVAAISRSGGRTYYADSVKGRFTISRDNAKNTVYLQMNSLKPEDTSVYYCAVYVTRDSGWWLYDYWGQGTQVTVSS,high polyreactivity
8,QVQLVDSGGGLVQAGGSLRLSCAASGSTFYGYAMGWYRQAPGKERELVAAITSSGTRTYYADSVKGRITISRDNAKNSVYLQMNSLKPEDTAVYYCAADAPNFGLYRDKDYDYWGQGTQVTVSS,high polyreactivity
9,QVQLVESGGGLVQAGGSLRLSCAASGSIFWSYAMGWYRQAPGKERELVAAINWSGGRTYYADSVKGRFTISRDNAQNTVYLQMNSLKPEDTAVYYCNAPVHTAQGDEYDYWGQGTQVTVSS,high polyreactivity
10,QVQLVESRGGLVQAGRSLRLSCAASGSTFVQYVMGWYRQAPGKERELVAAITRSGGSTYYADSVKGRFTISRDNAKNTVYLHMNSLKPEDTAVYYCAAVPWRRSTRYDYWGQGTQVTVSS,high polyreactivity
11,QVQLVESGGGLVQAGGSLRLSCAASGRISVRNAMGWYRQAPGKERELVATIRSGGSTNYADSVKGRFTISRDNAKNTVYLQMYSLKPEDTAVYYCATAKLTWRSQGLDYWGQGTQVTVSS,low polyreactivity
12,QDQLVESGGGLVQAGGSLRLSCAASGFTFNIYAMGWYRQAPGKERELVAAISWSGGRTNYADSVKGRFTISRDNAKKTVYLQMNSLKPEATAVYYCAVRYKSWYGFNYWGQGTQVTVSS,high polyreactivity
13,QVQLVESGGGLVQEGGSLRLSCAASGGIFGWYAMGWYRQAPGKERELVATITWRGGRTYYADSVKGRFTISRDNEKNTVYLQMNSLKPEDTAVYYCNAEWLWYDAGYRYTIRDSWGQGTQVTVSS,low polyreactivity
14,QVQLVESGGGLVQAGGSLRLSCAASGSIFTRYAMGWYRQAPGKERELVAVISVSGGRTYYADSVKGRFTISRDNAKNTVYLQMNSLKPEDTAVYYCAVGVLYAGYFYRYRYYYWGQGTQVTVSS,high polyreactivity
15,QVQLVESGGGLVQAGGSLRLSCAASGRIFFPYDMGWYRQAPGKERELVAAITNSGGRTYYADSVKGRFTISRDNAKNTVYLQMNSLKPEDTAVYYCNADAYEFRWVKHYDYWGQGTQVTVSS,low polyreactivity
16,QVQLQESGGGLVQAGGSLRLSCAASGTIFRFRYMGWHRQAPGKERELVAGINGGTTTYYADSVIGRFTISRDNAKKSVYLQMNSLKPDDTAVYNCAAGASRLTYYDYWGQGTQVTVSS,low polyreactivity
17,QVQLVESGGGLVQAGGSLRLTCAASGRIFWRNAMGWYRQAPGKVREFVAAITGTGGSTYYADSVKGRFTISRDTAKNTVYLQMNSLKPEDTAVYYCAARWDYSYRYRLYYWGQGTQVTVSS,high polyreactivity
18,QVQLVESGGGLVQAGGSLRLSCAACGSIFLSNSMGWYRQAPGKERELVADIDWTGGDTYYADSVKGRFTISRDNAMNTVYLQMNSLKPEDTAFYYCAADYGYRNLLTEYGYWVQGTQVTVSS,low polyreactivity
19,QVQLVESGGGLVQAGGSLRLSCAASGRTYRYAMGWYRQAPGNERELVAAIRWSGGSTYYADSVKGRFTISRDNAKNTVYIQMNSLKPEDTAVYYCAADSYATRYYYWGQGTQVTVSS,high polyreactivity
20,QVQLVESGGGLVQAGGSLSLSCAAYGGIFPENAMGWYRLAPGKERELVAAMSRSGSSTYYADSVKGRFTISRDNAKNTVFLQMNSLKPEVTAVSYCAARGVKWGQGSQVTVSS,high polyreactivity
21,QVQLVESGGGLVQAGGSLRLSCAASGRTVGGNAMGWYRQAPGKERELVAAINRSGGTTYYADSVKGRFTISRDNAKNTVYLQMNSLKPEDTAVYYCAARRTVSATRMGYWGQGTQVTVSS,high polyreactivity
22,QVQLVESGGGLVQAGGSLRLSCAASGIIFQNYDMGWYRQAPGKERELVAAITSGVSTYYADSVKGRFTIARYNAKNTVYLQMNSLKPEDTAVYYCAVVGGFRWIRMEYWGQGTQVTVSS,low polyreactivity

row,Sequence,polyreactivity (PSR sort gate)
1,QVQLVESAGGLVPAGGSLRLSCAASGSIIITKAMGWYRQAPGKERELVAAISWTDDITYYADSVKGRFTISRDNAKNTVYLQMNSLKPEDTAVYYCAAEETSYAYDYWGQGTQVTVSS,low polyreactivity
2,QVQLVESGGCLVQAGGSLRLSCAASGRTFYSYAMGWYRQAPGKERELVAAISYTGASTFYADSVKGRFTISRDNAKNTVYLQMNSLKPEDTAVYYCAARKVRFAVDYWGQGTQVTVSS,high polyreactivity
3,QVQLVESGGGLVQAGGSLRLSCAASGSIFDSYAMGWSRQAPGKERELVAAITWSGGITFYADSVKGRFTISRDNAKNTVYLQMNSLKPEDTAVYYCATARSYVGVGGTFVGLYDYWGQCTQVTVSS,low polyreactivity
4,QVQLVESGGGLVQAGGSLRISCAASGRTFRKYGMGWYRQAPGKERELLAAITRSGDSTYYADSVKARFTISRDNAMNTVYLQMNSLKPEDTAVYYCNTDGPRTYDTWEYDYWGQGTQVTVSS,high polyreactivity
5,QVQLVESGGGLVQAGGSLRLSCAASGRIFRVNALGWYRQATRKERELVAGITQGDGSTYYADSVKGRFTISRDNAKNTVYLQMNSLKPEDTAVYYCAAEGFYTTGSPYSGGLDYWGQGTQVTVSS,low polyreactivity
6,QGQLVESGGGLVQEGGILHLTCAASGRIFCYYDMGWSRQEPGKERELVAAISRSGGSTYYADSVKGRFTISRDNAKNTVYLQMNSLKPEDTAVYYCAAEYYGFSWAGYYYWGQGTQVTVSS,high polyreactivity
7,QVQLVESGGGLVQAGGSLRLSCAASGRTFGANAMGWYRQAPGKERELVAAISSSDDSTYYADSVKGRFTISRDNAKNTVYLQMNSLKPEDTAVYYCAAEDVYPQLDYWGQGTLVTVSS,low polyreactivity
8,QVQLVESGGGLVQAGGSLRLSCAASGIIFGDNGMGWYRQAPGKERELVAVITSGDGTNYADSVKGRFTISRDNANNTFYLQMNSLKPEDTAVYYCAADFRIVVYGWGGSHMDYWGKGTQVTVSS,low polyreactivity
9,QVQLVESGGGLVQAGGSLRLSCAASGRTFGYYTMGWYRQAPGKERELVATITSSGGSTYYADSVKGRFTISRDNAKNTVYLQMNSLKPEDTAVYYCAARRKQGAYDYWGQGTQVTVSS,high polyreactivity
10,QVQLVESGGGLVQSGGSLRLSCAASGRTFRYYVMGWYRQAPGKERELVADISRGGGRTRYADSVKGRFTISRDNAKNTVYLQMNSLKRDDTAVYYCGARSYSGQFGYWGQGTQVTVSS,high polyreactivity
11,QVQLVESGGGLVQAGGSLRLSCAASGFTFYLYGMGGYRQAPGKERELVAAIRSGGSTNYADSVKGRFSISRDNAKNTVYLQMNSLKPEDTAVYYCATDIHSVHNNRDKPDYDYWGQGSQVTVSS,low polyreactivity
12,QVQLVESGGGLVQAGGSLRLSCAASGRIFDRNAMGWSRQAPGKERELVAAITRSGGRTYYADSVKGRFTISRDNAKYTVYLQMNSLKPEDTAVYYCNRGYPRSVVHYNSWGQGTQVTVSS,high polyreactivity
13,QVQIVESGGALVQAGGSLRFSCAASGSIFFSNTRGWYRQAPGKEREFVAAITWSTGNTYYADSVKGRFTISRDNAKNTVYLQMNSLKPEDTAVYYCYAEYLVITWYGGVEFDYWGQGTQVTVSS,low polyreactivity
14,QVQLVESGGGLVQAGGSLRLSCAASGNIFGYYVMGWYRPAPGKERELVAGISSGDSTDYADSVKGRFTISRDNAKNTVYLQMNSLKPEDTAVYYCNADWNPTERWFYWYTPLGYDYWGQGTQVTVSS,low polyreactivity
15,QVQLVESGGGLVQAGGSLRLSCAASGRIFYYYAMGWSRQAPGKERELVAAITRRGGSTYYADSVKGRFTISRDNAKNTVYLQMNSLKPEDPADYYCAKPDRTGWLDGEYWGQGTQVTVSS,low polyreactivity
16,QVQLVESGGGLVQAGRTLRLSCAASGFTFGRYAMGWYRQAPGKERELVAAISRNGGRTYYADSVKGRFTISRDNAMNTVYFQMNSLKPEDTAVYNCAADGYERKTAQYDYWGQGTQVTVSS,high polyreactivity
17,QVQLVESGGGLVQAGGSLRLSCAASGFIFCPNDMGWYRQAPGKERELVADISGTGGGTYADSVKGRFTISRDNAKNTVYLQMNSLKPEDTAVYYCAALYGLYVSPYWYTGYYWGQGTQVTVSS,low polyreactivity
18,QVQLVESGGGLVQAGGSLRLSCAASGFTFPSYAMGWYRQAPGKDREFVAGITKGGGNTYYADSVKGRFTISRDNAKNNVYLQMNSLKPEDTAVYYCAKCPLPRAGVKFDYWGQGTQVTVSS,low polyreactivity
19,QVQLVESGGGLVQAGGSLRLSCAASGSIFSQYVMGWYRQAPGKERELVAAISWSGGHTYYADSVKGRFTISRDNAKNTVYLQMNSLKPEDTAVYYCATVPRKTPGNAELDYWGQGTQVTVSS,high polyreactivity
20,QVQLVESGGGLVQAGGSLRLSCAASGSTFDDNAMGGYREAPRKERELVAGISDGDDSTNYADSVKGRFTISRDNAKNTVYLQMNSLTPEDTEVYFCNARYVRTYGVRFGYDYWGQGTQVTVSS,low polyreactivity
21,QVQLVESGGGLVQAGGSLRLSCAASGSIFTYNVMGWYRQAPGKERELVASISWSGGRTYYADSVKGRFTISRDNAKNTVYLQMNSLKPEDTAVYYCNKVRPPVYFPNRDYWGQGTQVTVSS,low polyreactivity
